# Assay results as given in PMC1277818, “Substrate specificity analysis of protein kinase complex Dbf2-Mob1 by peptide library and proteome array screening” (BMC Biochemistry, 2005).
# T1: FHHDbf2-H6Mob1TM9 (Saccharomyces cerevisiae, UniProt P22204+P40484)
# T1 construct: made in house; host or cells: Hi5 insect cells (baculovirus)
# T1 sequence (P22204 1-572): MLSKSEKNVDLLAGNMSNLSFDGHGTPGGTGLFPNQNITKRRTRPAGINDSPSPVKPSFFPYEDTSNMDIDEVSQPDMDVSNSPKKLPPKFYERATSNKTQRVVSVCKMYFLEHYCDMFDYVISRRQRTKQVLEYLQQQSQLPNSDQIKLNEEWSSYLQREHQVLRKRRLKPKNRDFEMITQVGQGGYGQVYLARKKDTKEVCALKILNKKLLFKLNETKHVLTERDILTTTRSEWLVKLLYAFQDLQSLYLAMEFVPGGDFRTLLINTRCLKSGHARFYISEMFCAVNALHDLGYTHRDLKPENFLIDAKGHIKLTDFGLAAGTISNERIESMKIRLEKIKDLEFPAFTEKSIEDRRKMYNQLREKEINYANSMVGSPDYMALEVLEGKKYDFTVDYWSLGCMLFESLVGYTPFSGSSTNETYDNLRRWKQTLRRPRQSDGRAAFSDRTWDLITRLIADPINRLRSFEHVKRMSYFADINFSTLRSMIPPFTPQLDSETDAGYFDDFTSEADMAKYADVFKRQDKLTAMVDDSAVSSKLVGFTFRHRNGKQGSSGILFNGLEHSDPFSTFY
# T1 sequence (P40484 1-314 partner): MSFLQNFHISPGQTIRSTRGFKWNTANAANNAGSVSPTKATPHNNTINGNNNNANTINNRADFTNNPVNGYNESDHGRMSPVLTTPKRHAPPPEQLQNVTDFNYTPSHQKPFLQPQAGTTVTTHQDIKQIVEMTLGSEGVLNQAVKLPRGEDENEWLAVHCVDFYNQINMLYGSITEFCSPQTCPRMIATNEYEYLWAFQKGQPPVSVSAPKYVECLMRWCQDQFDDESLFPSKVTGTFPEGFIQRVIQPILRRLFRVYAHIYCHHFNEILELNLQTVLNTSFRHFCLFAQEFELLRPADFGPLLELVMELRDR
# Target: T1, FHHDbf2-H6Mob1TM9
# Experiment: Yeast proteome chip assay
# Type: biochemical
# Settings: Table 3; GST fusion proteins on proteome chip, [γ-33P]ATP, chips in duplicate, computer analysis
# Procedure: The relatively low sequence complexity of the Dbf2 phosphorylation motif diminished the power of using genome-wide bioinformatics screens to identify putative substrates. Accordingly, we carried out a proteome array screen to identify putative yeast substrates. […] After taking into account the proteins phosphorylated in the negative controls, 67 proteins were determined to be putative Dbf2-Mob1 substrates (Table 3).
# Yeast proteome microarrays were prepared as previously described. Overexpressed GST-tagged yeast proteins were purified from ~4,400 yeast strains and spotted on slides. To determine the optimal amount of kinase to use for probing proteome chips, we performed trial assays as described (J. Ptacek et al., submitted). […] The full proteome array was probed with 4 μl ^FHHDbf2-^H6Mob1^TM9 in 200 μl of DKB supplemented with [γ-^33P]ATP. As a control, ^FHHDbf2(N305A)-^H6Mob1^TM9 was used to probe the proteome array. […] To control for autophosphorylated proteins, the proteome array was probed with 200 μl of DKB supplemented with [γ-^33P]ATP. Proteome chips were assayed in duplicate in each case. Data analysis was performed as described (J. Ptacek et al., submitted). Briefly, signals were analyzed by a computer algorithm designed to normalize background and identify signals as positive if 3 of 4 spots (each protein is spotted twice on each slide and each kinase or control was tested on 2 slides) were 2 standard deviations above background and the fourth spot was 1.5 standard deviations above background.
row,Molecule,Slide Signal (after normalization)
1,"YDR299W: GST fusion yeast protein on proteome chip (protein, UniProt Q06631 1-534, looked up, GST tag, GST fusion yeast protein on proteome chip) Protein BFR2: MEKSLADQISDIAIKPVNKDFDIEDEENASLFQHNEKNGESDLSDYGNSNTEETKKAHYLEVEKSKLRAEKGLELNDPKYTGVKGSRQALYEEVSENEDEEEEEEEEEEKEEDALSFRTDSEDEEVEIDEEESDADGGETEEAQQKRHALSKLIQQETKQAINKLSQSVQRDASKGYSILQQTKLFDNIIDLRIKLQKAVIAANKLPLTTESWEEAKMDDSEETKRLLKENEKLFNNLFNRLINFRIKFQLGDHITQNEEVAKHKLSKKRSLKELYQETNSLDSELKEYRTAVLNKWSTKVSSASGNAALSSNKFKAINLPADVQVENQLSDMSRLMKRTKLNRRNITPLYFQKDCANGRLPELISPVVKDSVDDNENSDDGLDIPKNYDPRRKDNNAIDITENPYVFDDEDFYRVLLNDLIDKKISNAHNSESAAITITSTNARSNNKLKKNIDTKASKGRKLNYSVQDPIANYEAPITSGYKWSDDQIDEFFAGLLGQRVNFNENEDEEQHARIENDEELEAVKNDDIQIFG",0.47
2,"YPL211W: GST fusion yeast protein on proteome chip (protein, UniProt Q08962 1-181, looked up, GST tag, GST fusion yeast protein on proteome chip) 60S ribosome subunit …: MRQLTEEETKVVFEKLAGYIGRNISFLVDNKELPHVFRLQKDRVYYVPDHVAKLATSVARPNLMSLGICLGKFTKTGKFRLHITSLTVLAKHAKYKIWIKPNGEMPFLYGNHVLKAHVGKMSDDIPEHAGVIVFAMNDVPLGFGVSAKSTSESRNMQPTGIVAFRQADIGEYLRDEDTLFT",0.4521
3,"YOL104C: GST fusion yeast protein on proteome chip (protein, UniProt Q12366 1-352, looked up, GST tag, GST fusion yeast protein on proteome chip) Non-disjunction protein 1: MSKDNRLASILLQPVASSSGNCTEFHDSKLHTLQEELNFLPLEGVASNVCPPMFRGHKNYVFVLYCLNQVDLVTNLQDSTKRYYPLQIFKDCQLSSLVQKDFSHYFQLSRQKEGEDRNDSDTTLVNVVNSGVSRHRSQLLKMCIIPRICSFDKSNSKTYKLIQEYVNRFETVLTKFGPEKDFTKVYANWSKLIESFNELILHDLLVKWQQWSELTQPNATVHQNIPNVLRELVIKLTQRYFTFQPSYSCSIDEFTTILLNKNALSLLDVFRKPRKYKLNFGLWLDCQNGILIFTNGIVQMADEITSERVKSFVRPAHLLVLEDHSNDEAVKKLMFFTFSAILQCFTDEILNC",0.3611
4,"YKL146W: GST fusion yeast protein on proteome chip (protein, UniProt P36062 1-692, looked up, GST tag, GST fusion yeast protein on proteome chip) Vacuolar amino acid …: MNGKEVSSGSGRTQSNNNKKNNNGGSTGISHASGSPLTDGNGGNSNGNSRSRSRSRKSSGTTGGLLKKPPLLVNNEAVHASVPDASHTSCNNGTLEVSINNPEPHVVDAVARHLIRNPSNSLQLQGGDITRDLYKWTNDHPSSPSQYQYPSQPALSTSIPSQAPSFSNRKRSMSFSAASIASSSHLNNNSEANGNPLAAIGLAPAPMTHEEIRAPGGFRRSFIIQKRRKHNVDAPIPNFFTRNFIEFLTLYGHFAGEDLSEEEEEEEETEEEPEEEALETESTQLVSREHGRHPHKSSTVKAVLLLLKSFVGTGVLFLPKAFHNGGWGFSALCLLSCALISYGCFVSLITTKDKVGVDGYGDMGRILYGPKMKFAILSSIALSQIGFSAAYTVFTATNLQVFSENFFHLKPGSISLATYIFAQVLIFVPLSLTRNIAKLSGTALIADLFILLGLVYVYVYSIYYIAVNGVASDTMLMFNKADWSLFIGTAIFTFEGIGLLIPIQESMKHPKHFRPSLSAVMCIVAVIFISCGLLCYAAFGSDVKTVVLLNFPQDTSYTLTVQLLYALAILLSTPLQLFPAIRILENWTFPSNASGKYNPKVKWLKNYFRCAIVVLTSILAWVGANDLDKFVSLVGSFACIPLIYIYPPLLHYKASILSGTSRARLLLDLIVIVFGVAVMAYTSWQTIKMWSQ",0.3592
5,"YIL010W: GST fusion yeast protein on proteome chip (protein, UniProt P40553 1-215, looked up, GST tag, GST fusion yeast protein on proteome chip) Peroxiredoxin DOT5: MGEALRRSTRIAISKRMLEEEESKLAPISTPEVPKKKIKTGPKHNANQAVVQEANRSSDVNELEIGDPIPDLSLLNEDNDSISLKKITENNRVVVFFVYPRASTPGCTRQACGFRDNYQELKKYAAVFGLSADSVTSQKKFQSKQNLPYHLLSDPKREFIGLLGAKKTPLSGSIRSHFIFVDGKLKFKRVKISPEVSVNDAKKEVLEVAEKFKEE",0.2606
6,"YML035C: GST fusion yeast protein on proteome chip (protein, UniProt P15274 1-810, looked up, GST tag, GST fusion yeast protein on proteome chip) AMP deaminase: MDNQATQRLNDLSLEPAPSHDEQDGSGLVIDIDQRKIGDEQAGVVVDDETPPLEQQDSHESLAADSRNANFSYHENQQLLENGTKQLALDEHDSHSAILEQPSHSTNCSSSNIAAMNKGHDSADHASQNSGGKPRTLSASAQHILPETLKSFAGAPVVNKQVRTSASYKMGMLADDASQQFLDDPSSELIDLYSKVAECRNLRAKYQTISVQNDDQNPKNKPGWVVYPPPPKPSYNSDTKTVVPVTNKPDAEVFDFTKCEIPGEDPDWEFTLNDDDSYVVHRSGKTDELIAQIPTLRDYYLDLEKMISISSDGPAKSFAYRRLQYLEARWNLYYLLNEYQETSVSKRNPHRDFYNVRKVDTHVHHSACMNQKHLLRFIKHKLRHSKDEKVIFRDGKLLTLDEVFRSLHLTGYDLSIDTLDMHAHKDTFHRFDKFNLKYNPIGESRLREIFLKTNNYIKGTYLADITKQVIFDLENSKYQNCEYRISVYGRSLDEWDKLASWVIDNKVISHNVRWLVQIPRLYDIYKKTGIVQSFQDICKNLFQPLFEVTKNPQSHPKLHVFLQRVIGFDSVDDESKVDRRFHRKYPKPSLWEAPQNPPYSYYLYYLYSNVASLNQWRAKRGFNTLVLRPHCGEAGDPEHLVSAYLLAHGISHGILLRKVPFVQYLYYLDQVGIAMSPLSNNALFLTYDKNPFPRYFKRGLNVSLSTDDPLQFSYTREPLIEEYSVAAQIYKLSNVDMCELARNSVLQSGWEAQIKKHWIGKDFDKSGVEGNDVVRTNVPDIRINYRYDTLSTELELVNHFANFKRTIEEK",0.1384
7,"YGL105W: GST fusion yeast protein on proteome chip (protein, UniProt P46672 1-376, looked up, GST fusion, GST fusion yeast protein on proteome chip) tRNA-aminoacylation cofactor …: MSDLVTKFESLIISKYPVSFTKEQSAQAAQWESVLKSGQIQPHLDQLNLVLRDNTFIVSTLYPTSTDVHVFEVALPLIKDLVASSKDVKSTYTTYRHILRWIDYMQNLLEVSSTDKLEINHDLDLPHEVIEKKKKAPAGGAADAAAKADEDVSKKAKKQDHPRGKPDEETLKKLREEAKAKKAAKKAANAKQQQEQQNKAPEKPKPSAIDFRVGFIQKAIKHPDADSLYVSTIDVGDEEGPRTVCSGLVKHFPLDAMQERYVVVVCNLKPVNMRGIKSTAMVLCGSNDDKVEFVEPPKDSKAGDKVFFEGFGDEAPMKQLNPKKKIWEHLQPHFTTNDGLEVIFKDEEEKDHPVRKLTNAKGESFKVASIANAQVR",0.1332
